Values of other authors, collected in paper PMC6426755.

Target: CCL21 (Homo sapiens) (UniProt O00585)
Assay: SPR (Biacore)

Sequence of UniProt O00585 (O00585 24-134): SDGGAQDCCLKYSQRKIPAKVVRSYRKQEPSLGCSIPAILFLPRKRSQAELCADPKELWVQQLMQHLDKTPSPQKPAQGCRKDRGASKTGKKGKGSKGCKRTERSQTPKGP

- Kd: 70 nM
Substance: podoplanin (from UniProt Q86YL7)
